Assay results from patent US20230331828A1.

Target: soluble Aβ (Aβ42) aggregates (human)
Assay: cell-based or functional assay

soluble Aβ (Aβ42) aggregates (human), sequence (peptide, as listed by the source): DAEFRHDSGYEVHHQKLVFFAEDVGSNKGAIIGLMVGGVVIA

## human IgG isotype control antibody
  Mean (Aβ spots per neuron); Isotype Control 1:50 (Aβ spots per neuron): 58.7
